Target: T1, Bcl-xL (UniProt Q07817-1 1-233)
T1 construct: Bcl-xL, prosurvival Bcl-2 family protein
Test: SPR; no format or conditions told

T1 sequence (Q07817 whole entry): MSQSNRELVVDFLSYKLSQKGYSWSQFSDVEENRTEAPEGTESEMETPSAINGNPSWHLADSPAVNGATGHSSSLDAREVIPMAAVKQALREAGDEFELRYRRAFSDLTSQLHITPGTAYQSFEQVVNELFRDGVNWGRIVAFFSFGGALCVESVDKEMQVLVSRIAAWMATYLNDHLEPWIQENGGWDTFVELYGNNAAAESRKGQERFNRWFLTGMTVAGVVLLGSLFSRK

| Binder | Kd |
| --- | --- |
| BimSBad^mut (BimSBad with the Bad BH3 residue F121 mutated to alanine) (ligand, N-terminal FLAG tag left out. Same conventional swap limits and species assumption as m1.) MAKQPSDVSSECDREGRQLQPAERPPQLRPGAPTSLQTEPQASMRQAEPANLWAAQRYGRELRRMSDEAVDSFKKGVFLNNYQAAEDHPRMVILRLLRYIVRLVWRMH | 8.5 nM |
| BimSBad (BimS BH3-only protein in which the native BH3 sequence is replaced by the BH3 domain of Bad) (ligand, N-terminal FLAG tag left out. BimS = BimEL lacking 42-131. Swap limits are only in Figure 1a; the conventional 26-mer exchange is used (Bim 141-166, which is BimS 51-76, replaced by Bad 103-128). The) MAKQPSDVSSECDREGRQLQPAERPPQLRPGAPTSLQTEPQASMRQAEPANLWAAQRYGRELRRMSDEFVDSFKKGVFLNNYQAAEDHPRMVILRLLRYIVRLVWRMH | < 0.2 nM |

— publication PMC4385932, “A transgenic mouse model to inducibly target prosurvival Bcl2 proteins with selective BH3 peptides in vivo” (Cell Death & Disease, 2015)
